Results reported in patent US10684273B2, “Use of phosphatidylinositol phosphate-binding material for apoptosis detection” (GIL MEDICAL CENTER, priority 2015, dated 2020).
“Also recorded” adds a separate entry of the source.

Key:
[1] = system: PtdIns(3,4,5)P3 externalized on the surface of apoptotic HeLa and CHO cells; assay: binding of recombinant Akt protein to apoptotic cells (confocal microscopy); format: cell-based; settings: through PH domain; 2 μg protein
Experimental: First, HeLa and CHO cells were treated with 4 μM camptothecin for 6 hours to induce apoptosis, fixed with formalin (10% neutral buffered) for 5 minutes, and washed twice with PBS. Then, the cells were treated with the serum-free protein blocking solution (Dako), and cultured along with 2 μg of recombinant Akt proteins (Millipore) for 30 minutes. Then, the HeLa and CHO cells, which were bound to Akt proteins, were treated with rabbit anti-CD14 antibody (HPA00212; 1:200, Sigma-Aldrich USA) or the anti-Akt pleckstrin homology (PH) domain antibody of monoclonal mouse (05-591, 1:100, Millipore) for 30 minutes, and treated with FITC-labeled secondary antibody for 30 minutes. Then, the resultant was counterstained with DAPI to visualize nuclei, and counterstained with propidium iodide to distinguish apoptotic cells.
(§1) Then, the cells were placed on a microscope and photographed by the Zeiss LSM 710 laser-scanning confocal microscope (Carl Zeiss) with appropriate excitation using a release filter set. The images were photographed using 40× oil immersion lens. The fluorescence intensity of the unprocessed original images was quantified using ZEN 2010 software (Carl Zeiss).

[2] = system: Thioglycollate-elicited peritoneal macrophages (Thio-pMacs); assay: IC-InsP6 absorption by peritoneal macrophages (Prussian blue staining); format: cell-based, C57BL/6 mouse; settings: compared to non-activated Thio-pMacs; 0 mM to 0.5 mM, 4 hours; concentration-dependent
Experimental: Thioglycollate-elicited peritoneal macrophages (Thio-pMacs) in a C57BL/6 mouse were obtained. Specifically, 2 mL of 3% Brewer thioglycollate medium (Difco, Detroit, Mich., USA) was intraperitoneally injected the mouse, and 3 to 5 days thereafter, the peritoneum of the mouse was washed with cold PBS to recover peritoneal macrophages. The cells were centrifuged at 1,500 rpm for 5 minutes. The resulting pellet was washed 3 times with PBS, resuspended in DMEM medium containing 10% FBS (Gibco), and cultured on the cover glass in a 6-well plate (Nunc, Fisher Scientific) at a density of 1×10^5 cells/mL. The cells were cultured by adhesion culture, and the slides were washed to remove the suspending cells. Then, the adhered Thio-pMacs cells were cultured according to the presence of LPS (0.5 μg/mL) for 6 hours. LPS induces the activation of Thio-pMacs.
After cultivation, the cells were treated with IC-InsP6 (0 mM to 0.5 mM) for 4 hours. The cells were washed with PBS to remove free IC-InsP6, fixed with formalin (10% neutral buffered) for 5 minutes, and stained as described below for the confirmation of intracellular iron absorption. Specifically, the cover glass was placed in a staining solution (5% potassium ferrocyanide and 12% HCl) for 1 hour, washed 3 times with distilled water, and stained with Prussian blue. […]

liver Kupffer cells = assay: phagocytosis of IC-InsP6 by liver Kupffer cells after intra-arterial injection; format: in vivo, C57BL/6 mice
RAW264.7 macrophages = assay: IC-InsP6 absorption by RAW264.7 macrophages; format: cell-based; settings: treatment concentration-dependent
apoptotic cells = assay: flow cytometer analysis of apoptosis; format: cell-based; settings: FIG. 14
Experimental: (§2) First, apoptosis was induced in CHO cells by treating them with 4 μM camptothecin for 6 hours, and the cells were fixed with formalin (10% neutral buffered) for 5 minutes and washed twice with PBS. Then, the cells were treated with a serum-free protein blocking solution (DAKO) along with the recombinant PH domain prepared in Example 5-1 for 30 minutes. Then, the cells were treated with the anti-Akt PH domain antibody of monoclonal mouse (05-591, 1:100, Millipore) and then treated with FITC-labeled secondary antibody for 30 minutes. Then, the cells were washed with PBS, fixed with formalin (10% neutral buffered) for 5 minutes, and stained. The cells were counterstained with propidium iodide to distinguish apoptotic cells.
(§3) The recombinant annexin V prepared in Example 5-1 was subjected to an experiment in the same manner and analyzed by FACS.

apoptotic CHO cells = assay: detection of apoptosis by recombinant PH domain and annexin V (confocal microscopy); format: cell-based; settings: 4 μM camptothecin 6 hours
Experimental: as §2, §3, §1

[3] = protein-lipid overlay assay, other lipids on the strip; format: binding; settings: mixed with 5 μM CaCl2
Experimental: (§4) To confirm whether the inositol phosphpate groups of various phosphatidylinositol phosphates directly bind to macrophage CD14 receptors, a protein-lipid overlay assay was performed using the full-length recombinant human CD14 proteins and variant CD14 proteins prepared in Example 2-2. PIP strips or PIP arrays were purchased from Echelon Biosciences.
(§5) After culturing a cell membrane for 15 minutes, non-specific bindings to the cell membrane was blocked using TBS-T (50 mM Tris, 0.15 M NaCl, and 0.05% Tween-20, pH 7.4, EDTA-free protease inhibitor cocktail; Roche, Germany) containing 3% BSA. After the blocking, the cell membrane was incubated along with each of the purified recombinant CD14 proteins (100 ρmol) for 30 minutes, washed 3 times with PBS, incubated again with anti-CD14 (rabbit, HPA002127; Sigma-Aldrich), and incubated with horseradish peroxidase (HRP)-labeled secondary antibody (goat; HAF007; R&D Systems) for 30 minutes. The binding was detected using the ImageQuant LAS 4000 (Fujifilm, Japan). As described in Toda et al. (Mol Cell Biol 32, 118, 2012), PIP-affinity bead pulldowns were performed.
To confirm whether the PKCβ1 C2 domain-Myc protein and the inositol phosphpate group in various phosphatidylinositol phosphates directly bind to each other, protein-lipid overlay assay and immunoblotting were performed in the same manner as in Example 2-3. […]

[4] = protein-lipid overlay assay and immunoblotting (PIP strips or PIP arrays); format: binding; settings: mixed with 5 μM CaCl2
Experimental: as §4, §5
To confirm whether the PKCβ1 C2 domain-Myc protein and the inositol phosphpate group in various phosphatidylinositol phosphates directly bind to each other, protein-lipid overlay assay and immunoblotting were performed in the same manner as in Example 2-3. The PIP strip or PIP array was purchased from Echelon Biosciences.
Annexin V, which is known to specifically bind to phosphatidylserine, was subjected to protein-lipid overlay assay and immunoblotting in the same manner as in Example 2-3.

recombinant Akt protein: recombinant Akt proteins (Millipore), PH domain-containing protein
binding to PtdIns(3,4,5)P3 externalized on the surface of apoptotic cells [1]: binds; also recorded: can bind

Iron-Calcium-InsP6 (phytate) [IC-InsP6]
phagocytosis of IC-InsP6 by LPS-activated Thio-pMacs [2]: effective phagocytosis | phagocytosis of IC-InsP6 by CD14-defective Kupffer cells (liver Kupffer cells; CD14-defective mice, intra-arterial injection): hardly phagocytized | phagocytosis of IC-InsP6 by wild-type Kupffer cells (liver Kupffer cells; wild-type mice): effectively phagocytized | phagocytosis of IC-InsP6 by RAW264.7 macrophages (RAW264.7 macrophages): effective phagocytosis

B1: PH domain: human Akt PH domain (1st to 144th amino acids) cloned into pET28a, expressed in E. coli, 21 kDa (protein, UniProt P31749 1-144, looked up, fragment)
chain: MSDVAIVKEGWLHKRGEYIKTWRPRYFLLKNDGTFIGYKERPQDVDQREAPLNNFSVAQCQLMKTERPRPNTFIIRCLQWTTVIERTFHVETPEEREEWTTAIQTVADGLKKQEEEEMDFRSGSPSDNSGAEEMEVSLAKPKHR
modifications: PH domain
notes: human Akt PH domain (1st to 144th amino acids) cloned into pET28a, expressed in E. coli, 21 kDa
detection in apoptotic cells by flow cytometer (apoptotic cells): appeared | binding on the surfaces of apoptotic cells / detection of apoptosis (apoptotic CHO cells; FIG. 13): bind at different locations from each other | binding on the surfaces of apoptotic cells / detection of apoptosis (apoptotic CHO cells; FIG. 13, listed as recombinant PH domain): can detect apoptosis

B2: annexin V: human annexin V (1st to 319th amino acids) cloned into pET28a, expressed in E. coli, 37 kDa (protein, UniProt P08758 1-319, looked up, fragment)
chain: MAQVLRGTVTDFPGFDERADAETLRKAMKGLGTDEESILTLLTSRSNAQRQEISAAFKTLFGRDLLDDLKSELTGKFEKLIVALMKPSRLYDAYELKHALKGAGTNEKVLTEIIASRTPEELRAIKQVYEEEYGSSLEDDVVGDTSGYYQRMLVVLLQANRDPDAGIDEAQVEQDAQALFQAGELKWGTDEEKFITIFGTRSVSHLRKVFDKYMTISGFQIEETIDRETSGNLEQLLLAVVKSIRSIPAYLAETLYYAMKGAGTDDHTLIRVMVSRSEIDLFNIRKEFRKNFATSLYSMIKGDTSGDYKKALLLLCGED
binding to phosphatidylserine [3]: did not bind | binding to PI(3,5)P2, PI(4,5)P2, and PI(3,4,5)P3 [4]: strongest bindings | binding to PI(5)P, PI(3)P, PI(4)P and PI(3,4)P2 [4]: also shown to bind | binding to various kinds of phosphatidylinositol phosphates ([4]; 100 ρmol): shown to bind | detection in apoptotic cells by flow cytometer (apoptotic cells): simultaneously detected | binding on the surfaces of apoptotic cells / detection of apoptosis (apoptotic CHO cells; FIG. 13): bind at different locations from each other
